Numbering of substitutions follows the chain as printed.
B1: 04H1077-G1m/04L1034-lam1 (antibody, human IgG1, lambda, V domains shown)
VH: EVQLVESGGDLVKPGGGLRLSCAASGFTFSSRTMNWVRQAPGKGLEWVSSISTRSGYIYYAESVKGRFTISRDNAKNSLYLQMNSLRAEDTAVYYCARYGKREDMLWVFDYWGQGTLVTVSS
VL: QSALTQPPSASGSPGQTVTISCDGPSTDVGDYNWVSWYQQHPGKAPKLMIYFTSKKPSGVPDRFSGSKSGNTASLTVSGLQAEDEADYFCSTYAAPLGPMFGGGTKLTVLG
B2: 04H1077-G1m/04L1041-lam1 (antibody, human IgG1, lambda, V domains shown)
VH: B1 VH
VL: B1 VL with W34Y, S36H
B3: 04H1077-G1m/04L1067-lam1 (antibody, human IgG1, lambda, V domains shown)
VH: B1 VH
VL: B1 VL with D28G, W34Y, S36H
B4: 04H1077-G1m/04L1086-lam1 (antibody, human IgG1, lambda, V domains shown)
VH: B1 VH
VL: B1 VL with D28G, W34Y, S36H, S91Q
B5: 04H1207-G1m/04L1086-lam1 (antibody, human IgG1, lambda, V domains shown)
VH: B1 VH with D10G, G17S, R32K
VL: B1 VL with D28G, W34Y, S36H, S91Q
B6: 04H1208-G1m/04L1086-lam1 (antibody, human IgG1, lambda, V domains shown)
VH: B1 VH with D10G, G17S, R32K, E62R
VL: B1 VL with D28G, W34Y, S36H, S91Q
B7: 04H1389-G1m/04L1086-lam1 (antibody, human IgG1, lambda, V domains shown)
VH: B1 VH with D10G, G17S, R32K, R54Q, G56H
VL: B1 VL with D28G, W34Y, S36H, S91Q
B8: 04H1389-G1m/04L1305-k0MT (antibody, human IgG1, kappa)
heavy: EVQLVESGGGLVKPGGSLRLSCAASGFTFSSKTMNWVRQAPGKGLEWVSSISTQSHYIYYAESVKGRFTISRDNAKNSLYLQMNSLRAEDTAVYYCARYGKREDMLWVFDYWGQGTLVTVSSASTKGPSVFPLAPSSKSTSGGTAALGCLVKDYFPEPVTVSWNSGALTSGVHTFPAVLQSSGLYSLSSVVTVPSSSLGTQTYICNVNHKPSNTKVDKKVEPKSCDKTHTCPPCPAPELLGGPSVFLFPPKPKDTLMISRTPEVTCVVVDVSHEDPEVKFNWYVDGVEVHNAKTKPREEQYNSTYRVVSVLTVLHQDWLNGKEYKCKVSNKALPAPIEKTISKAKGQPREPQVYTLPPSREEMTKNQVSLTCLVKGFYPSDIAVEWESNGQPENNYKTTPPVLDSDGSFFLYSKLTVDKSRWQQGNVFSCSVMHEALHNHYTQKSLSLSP
light: DIVMTQSPLSLPVTPGEPASISCDGPSTGVGDYNYVHWYQQKPGQAPRLLIYFTSKKPSGVPDRFSGSGSGTDFTLKISRVEAEDVGVYYCQTYAAPLGPMFGQGTKLEIKRTVAAPSVFIFPPSDEQLKSGTASVVCLLNNFYPREAKVQWKVDNALQSGNSQESVTEQDSKDSTYSLSSTLTLSKADYEKHKVYACEVTHQGLSSPVTKSFNRGEC
B9: 04H1382-G1m/04L1086-lam1 (antibody, human IgG1, lambda, V domains shown)
VH: B1 VH with D10G, G17S, R32K, R54Q, G56H, E62R
VL: B1 VL with D28G, W34Y, S36H, S91Q
B10: 04H1208-G1m/04L1407-k0MT (antibody, human IgG1, kappa, V domains shown)
VH: B1 VH with D10G, G17S, R32K, E62R
VL: DIVMTQSPLSLPVTPGEPASISCDGPSTDVGDYNWVHWYQQKPGQAPRLLIYYTSSKPEGVPDRFSGSGSGTDFTLKISRVEAEDVGVYYCQTYAAPLGPTFGQGTKLEIKR

Target: T1, human CTLA4 (soluble analyte of the Biacore assays of Examples 3-3, 4 and 5) (human, UniProt P16410 36-161)
T1 construct: also called hCTLA4
T1 sequence: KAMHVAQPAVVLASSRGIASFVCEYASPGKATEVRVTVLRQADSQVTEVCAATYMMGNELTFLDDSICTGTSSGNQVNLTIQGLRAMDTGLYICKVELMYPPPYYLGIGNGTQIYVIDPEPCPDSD
Assay: SPR 37C, Ab on Protein G, 1000 nM CTLA4, ATP 1 uM; ATP 1 uM; binding amount at 1000 nM CTLA4
Method: (§1) Biacore T200 was used to measure the binding of the generated antibodies to human CTLA4. 20 mM ACES (pH 7.4), 150 mM NaCl, 2 mM MgCl₂, 0.05% Tween 20 with ATP added to the desired concentration was used as the running buffer, and the assay was performed at 37° C. First, Protein G (CALBIOCHEM) was immobilized onto a Series S Sensor Chip CM3 (GE Healthcare), and the antibodies were captured by interacting an antibody solution prepared in an ATP-free running buffer with the chip. Next, by interacting with a human CTLA4 solution prepared in a running buffer containing ATP to the desired concentration, or a human CTLA4 solution prepared in a running buffer containing no ATP, the binding ability of the antibody to human CTLA4 in the presence or absence of ATP was evaluated. Chips were regenerated with 25 mM NaOH and 10 mM Glycine-HCl (pH 1.5), and assay was performed by repeatedly capturing antibodies. The dissociation constant of each antibody for CTLA4 was calculated using Biacore T200 Evaluation Software 2.0. Specifically, the binding rate constant ka (L/mol/s) and the dissociation rate constant kd (1/s) were calculated by global fitting of the sensorgrams obtained by the measurement, using a 1:1 Langmuir binding model. The dissociation constant KD (mol/L) was calculated from those values. Alternatively, the dissociation constant KD (mol/L) was calculated by the steady state model. In addition, the binding amount of CTLA4 per unit amount of antibody was calculated by correcting the amount of CTLA4 bound as calculated from the sensorgram obtained by the assay with the amount of antibody captured onto the chip surface.
(§2) The KD values marked with an * in the table were calculated using the steady state model. It was shown that all the variants prepared using 04H0150-G1m/04L0072-lam1 as the parent antibody had enhanced binding in the presence of ATP as compared to 04H0150-G1m/04L0072-lam1.

Compared with B1, B2 is higher in “Binding to Human CTLA4 (amount per unit antibody)” value: 0.007 for the first, 0.023 for the second.

Going from B3 to B4, the “Binding to Human CTLA4 (amount per unit antibody)” value falls from 0.041 to 0.031.

First: B5
Second: B6
The “Binding to Human CTLA4 (amount per unit antibody)” value of the first is higher: 0.047 for the first, 0.03 for the second.

Target: T1, human CTLA4 (soluble analyte of the …)
Assay: SPR 37C, Ab on Protein G, 1000 nM CTLA4, ATP 1 uM
Method: as §1, with “Next,” for “Biacore T200 was used to measure the binding of the generated antibodies to human CTLA4. 20 mM ACES (pH 7.4), 150 mM NaCl, 2 mM MgCl₂, 0.05% Tween 20 with ATP added to the desired concentration was used as the running buffer, and the assay was performed at 37° C. First, Protein G (CALBIOCHEM) was immobilized onto a Series S Sensor Chip CM3 (GE Healthcare), and the antibodies were captured by interacting an antibody solution prepared in an ATP-free running buffer with the chip. Next,”
(§3) Biacore T200 was used to evaluate the binding of the generated variants to ATP and to human CTLA4. The assay of binding to ATP was performed at 37° C. using 20 mM ACES (pH 7.4), 150 mM NaCl, 2 mM MgCl₂, 0.05% Tween20 as the running buffer. First, Sure Protein A (GE Healthcare) was immobilized onto a Series S Sensor Chip CM3 (GE Healthcare), and the antibodies were captured onto the chip by interacting an antibody solution prepared in the running buffer. Next, the binding ability to the antibody was evaluated by interacting with an ATP solution prepared in the running buffer. Chips were regenerated with 25 mM NaOH and 10 mM Glycine-HCl (pH 1.5) and assay was performed by repeatedly capturing antibodies. For the binding amount of each antibody to ATP, the binding amount of ATP per unit amount of antibody was calculated by correcting the amount of binding when ATP was injected at a concentration of 100 nM with the amount of antibody captured onto the chip surface. Binding to human CTLA4 was measured using Biacore T200 by the method described in Example 3-3.

First: B7
Second: B5
The “Binding to Human CTLA4 (amount per unit antibody)” value of the first is higher: 0.138 for the first, 0.037 for the second.

First: B6
Second: B8
The “Binding to Human CTLA4 (amount per unit antibody)” value of the first is lower: 0.022 for the first, 0.12 for the second.

Target: T1, human CTLA4 (soluble analyte of the …)
Assay: SPR 37C, ATP 10 µM
Method: as §1, with “In addition, the binding amount of CTLA4 per unit amount of antibody was calculated by correcting the amount of CTLA4 bound as calculated from the sensorgram obtained by the assay with the amount of antibody captured onto the chip surface.” left out

For B7, the “fold enhancement of binding ability against the parent antibody 04H1207-G1m/04L1086-lam1” value was roughly 10 fold.

B9 was tested, and the “fold enhancement of binding ability against the parent antibody 04H1208-G1m/04L1086-lam1” value was roughly 10 fold.

Target: T2, mCTLA4-His (mouse, UniProt P09793 36-161)
T2 construct: also called mouse CTLA4; Mouse CTLA4
Assay: SPR 37C, ATP 100 µM

B10 was tested, and the “fold weaker binding ability to mouse CTLA4 than to human CTLA4” value was roughly 2 fold.

Target: T1, human CTLA4 (soluble analyte of the …)
Assay: SPR 37C, Ab on Protein G, 1000 nM CTLA4, no ATP
Method: as §1, with “Next,” for “Biacore T200 was used to measure the binding of the generated antibodies to human CTLA4. 20 mM ACES (pH 7.4), 150 mM NaCl, 2 mM MgCl₂, 0.05% Tween 20 with ATP added to the desired concentration was used as the running buffer, and the assay was performed at 37° C. First, Protein G (CALBIOCHEM) was immobilized onto a Series S Sensor Chip CM3 (GE Healthcare), and the antibodies were captured by interacting an antibody solution prepared in an ATP-free running buffer with the chip. Next,”
as §3

First: B7
Second: B5
The “Binding to Human CTLA4 (amount per unit antibody)” value of the first is higher: 0.022 for the first, 0.01 for the second.

Going from B6 to B8, the “Binding to Human CTLA4 (amount per unit antibody)” value rises from 0.003 to 0.03.

Target: T1, human CTLA4 (soluble analyte of the …)
Assay: SPR 37C, Ab on Protein G, 1000 nM CTLA4, ATP 100 uM
Method: as §1, with “Next,” for “Biacore T200 was used to measure the binding of the generated antibodies to human CTLA4. 20 mM ACES (pH 7.4), 150 mM NaCl, 2 mM MgCl₂, 0.05% Tween 20 with ATP added to the desired concentration was used as the running buffer, and the assay was performed at 37° C. First, Protein G (CALBIOCHEM) was immobilized onto a Series S Sensor Chip CM3 (GE Healthcare), and the antibodies were captured by interacting an antibody solution prepared in an ATP-free running buffer with the chip. Next,”
as §3

First: B7
Second: B5
The “Binding to Human CTLA4 (amount per unit antibody)” value of the first is higher: 0.193 for the first, 0.166 for the second.

Going from B6 to B8, the “Binding to Human CTLA4 (amount per unit antibody)” value rises from 0.139 to 0.151.

Target: T1, human CTLA4 (soluble analyte of the …)
Assay: SPR 37C, Ab on Protein G, 1000 nM CTLA4, ATP 100 uM; ATP 100 uM; binding amount at 1000 nM CTLA4
Method: as §1, §2

Compared with B1, B2 is higher in “Binding to Human CTLA4 (amount per unit antibody)” value: 0.114 for the first, 0.172 for the second.

First: B3
Second: B4
The “Binding to Human CTLA4 (amount per unit antibody)” value of the first is higher: 0.192 for the first, 0.181 for the second.

Compared with B5, B6 is lower in “Binding to Human CTLA4 (amount per unit antibody)” value: 0.196 for the first, 0.17 for the second.

Target: T1, human CTLA4 (soluble analyte of the …)
Assay: SPR 37C, Ab on Protein G, 1000 nM CTLA4, no ATP; no ATP; binding amount at 1000 nM CTLA4
Method: as §1, §2

Compared with B1, B2 is higher in “Binding to Human CTLA4 (amount per unit antibody)” value: 0.004 for the first, 0.006 for the second.

Going from B3 to B4, the “Binding to Human CTLA4 (amount per unit antibody)” value falls from 0.012 to 0.01.

Going from B5 to B6, the “Binding to Human CTLA4 (amount per unit antibody)” value falls from 0.013 to 0.005.

Target: T1, human CTLA4 (soluble analyte of the …)
Assay: SPR 37C, Ab on Protein G, 1000 nM CTLA4, ATP 10 uM
Method: as §1, with “Next,” for “Biacore T200 was used to measure the binding of the generated antibodies to human CTLA4. 20 mM ACES (pH 7.4), 150 mM NaCl, 2 mM MgCl₂, 0.05% Tween 20 with ATP added to the desired concentration was used as the running buffer, and the assay was performed at 37° C. First, Protein G (CALBIOCHEM) was immobilized onto a Series S Sensor Chip CM3 (GE Healthcare), and the antibodies were captured by interacting an antibody solution prepared in an ATP-free running buffer with the chip. Next,”
as §3

Compared with B7, B5 is lower in “Binding to Human CTLA4 (amount per unit antibody)” value: 0.189 for the first, 0.111 for the second.

Compared with B6, B8 is higher in “Binding to Human CTLA4 (amount per unit antibody)” value: 0.084 for the first, 0.154 for the second.

Target: T1, human CTLA4 (soluble analyte of the …)
Assay: SPR 37C, Ab on Protein G, 1000 nM CTLA4, ATP 10 uM; ATP 10 uM; binding amount at 1000 nM CTLA4
Method: as §1, §2

First: B1
Second: B2
The “Binding to Human CTLA4 (amount per unit antibody)” value of the first is lower: 0.041 for the first, 0.094 for the second.

Compared with B3, B4 is lower in “Binding to Human CTLA4 (amount per unit antibody)” value: 0.131 for the first, 0.106 for the second.

Going from B5 to B6, the “Binding to Human CTLA4 (amount per unit antibody)” value falls from 0.137 to 0.108.
